Test results from patent US20160002357A1.
Where “and” joins values, the source holds several entries; their conditions need not be identical. Identical values can stand only once.

B1: 154 EK-DART (bispecific antibody)
chain 1: QSVLTQPPSVSAAPGQKVTISCSGSSSNIGNNYVSWYQQLPGTAPKLLIYDNNKRPSGIPDRFSGSKSGTSATLGITGLQTGDEADYYCGTWDSSLSSYVFGTGTKVTVLGGGSGGGGEVQLVESGGGLVQPGGSLRLSCAASGFTFNTYAMNWVRQAPGKGLEWVARIRSKYNNYATYYADSVKDRFTISRDDSKNSLYLQMNSLKTEDTAVYYCVRHGNFGNSYVSWFAYWGQGTLVTVSSGGCGGGKVAALKEKVAALKEKVAALKEKVAALKE
chain 2: QAVVTQEPSLTVSPGGTVTLTCRSSTGAVTTSNYANWVQQKPGQAPRGLIGGTNKRAPWTPARFSGSLLGGKAALTITGAQAEDEADYYCALWYSNLWVFGGGTKLTVLGGGGSGGGGEVQLVQSGAEVKKPGASVKVSCKASGYTFTSYGISWVRQAPGQGLEWMGWISAYNGNTNYAQKLQGRVTMTTDTSTSTAYMELRSLRSDDTAVYYCATIDTATAFDIWGQGTMVTVSSGGCGGGEVAALEKEVAALEKEVAALEKEVAALEK
B2: 165 EK-DART (bispecific antibody)
chain 1: QSVLTQPPSVSAAPGQKVTISCSGSSSNIGNNYVSWYQQLPGTAPKLLIYDNNKRPSGIPDRFSGSKSGTSATLGITGLQAGDEADYYCGTWDSSLSAYVFGTGTKVTVLGGGSGGGGEVQLVESGGGLVQPGGSLRLSCAASGFTFNTYAMNWVRQAPGKGLEWVARIRSKYNNYATYYADSVKDRFTISRDDSKNSLYLQMNSLKTEDTAVYYCVRHGNFGNSYVSWFAYWGQGTLVTVSSGGCGGGKVAALKEKVAALKEKVAALKEKVAALKE
chain 2: QAVVTQEPSLTVSPGGTVTLTCRSSTGAVTTSNYANWVQQKPGQAPRGLIGGTNKRAPWTPARFSGSLLGGKAALTITGAQAEDEADYYCALWYSNLWVFGGGTKLTVLGGGGSGGGGEVQLVQSGAEVKKPGASVKVSCKASGYTFTSYGISWVRQAPGQGLEWMGWISAYNGNTNYAQKLQGRVTMTTDTSTSTAYMELRSLRSDDTAVYYCATIDTANAFDIWGQGTMVTVSSGGCGGGEVAALEKEVAALEKEVAALEKEVAALEK
B3: 177 EK-DART (bispecific antibody)
chain 1: QSVLTQPPSVSAAPGQKVTISCSGSSSNIGNNYVSWYQQLPGTAPKLLIYDNNKRPSGIPDRFSGSKSGTSATLGITGLQTGDEADYYCGTWDSSLSAYVFGTGTKVTVLGGGSGGGGEVQLVESGGGLVQPGGSLRLSCAASGFTFNTYAMNWVRQAPGKGLEWVARIRSKYNNYATYYADSVKDRFTISRDDSKNSLYLQMNSLKTEDTAVYYCVRHGNFGNSYVSWFAYWGQGTLVTVSSGGCGGGKVAALKEKVAALKEKVAALKEKVAALKE
chain 2: QAVVTQEPSLTVSPGGTVTLTCRSSTGAVTTSNYANWVQQKPGQAPRGLIGGTNKRAPWTPARFSGSLLGGKAALTITGAQAEDEADYYCALWYSNLWVFGGGTKLTVLGGGGSGGGGEVQLVQSGAEVKKPGASVKVSCKASGYTFTSYGISWVRQAPGQGLEWMGWISAYNGNTNYAQKLQGRVTMTTDTSTSTAYMELRSLRSDDTAVYYCATIDTANAFDIWGQGTMVTVSSGGCGGGEVAALEKEVAALEKEVAALEKEVAALEK
B4: 153 EK-DART (bispecific antibody)
chain 1: QSVLTQPPSVSAAPGQKVTISCSGSSSNIGNNYVSWYQQLPGTAPKLLIYDNNKRPSGIPDRFSGSKSGTSATLGITGLQTGDEADYYCGTWDSSLSGVVFGGGTKLTVLGGGSGGGGEVQLVESGGGLVQPGGSLRLSCAASGFTFNTYAMNWVRQAPGKGLEWVARIRSKYNNYATYYADSVKDRFTISRDDSKNSLYLQMNSLKTEDTAVYYCVRHGNFGNSYVSWFAYWGQGTLVTVSSGGCGGGKVAALKEKVAALKEKVAALKEKVAALKE
chain 2: QAVVTQEPSLTVSPGGTVTLTCRSSTGAVTTSNYANWVQQKPGQAPRGLIGGTNKRAPWTPARFSGSLLGGKAALTITGAQAEDEADYYCALWYSNLWVFGGGTKLTVLGGGGSGGGGEVQLVQSGAEVKKPGASVKVSCKASGYTFTSYGISWVRQAPGQGLEWMGWISAYNGNTNYAQKLQGRVTMTTDTSTSTAYMELRSLRSDDTAVYYCATIDTANAFGIWGQGTMVTVSSGGCGGGEVAALEKEVAALEKEVAALEKEVAALEK
B5: 179 EK-DART (bispecific antibody)
chain 1: QSVLTQPPSVSAAPGQKVTISCSGSRSNIGNNYVSWYQQLPGTAPKLLIYDSNKRPSGIPDRFSGSKSGTSATLGITGLQTGDEADYYCGTWDSSLSSWVFGGGTKLTVLGGGSGGGGEVQLVESGGGLVQPGGSLRLSCAASGFTFNTYAMNWVRQAPGKGLEWVARIRSKYNNYATYYADSVKDRFTISRDDSKNSLYLQMNSLKTEDTAVYYCVRHGNFGNSYVSWFAYWGQGTLVTVSSGGCGGGKVAALKEKVAALKEKVAALKEKVAALKE
chain 2: QAVVTQEPSLTVSPGGTVTLTCRSSTGAVTTSNYANWVQQKPGQAPRGLIGGTNKRAPWTPARFSGSLLGGKAALTITGAQAEDEADYYCALWYSNLWVFGGGTKLTVLGGGGSGGGGEVQLVQSGAEVKKPGASVKVSCKASGYTFTSYGISWVRQAPGQGLEWMGWISAYNGNTNYAQKLQGRVTMTTDTSTSTAYMELRSLRSDDTAVYYCATIDTANAFDIWGQGTMVTVSSGGCGGGEVAALEKEVAALEKEVAALEKEVAALEK

Each binder was assayed against human soluble CD3 (human) (UniProt P07766) (assay: SPR Biacore).
Sequence of human soluble CD3 (human) (P07766 23-126, chain 1 of 2): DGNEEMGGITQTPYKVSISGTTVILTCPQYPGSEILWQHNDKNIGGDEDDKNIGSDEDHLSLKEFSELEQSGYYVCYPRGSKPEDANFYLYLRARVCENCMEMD
Sequence of human soluble CD3 (human) (P04234 22-105, chain 2 of 2, further chain): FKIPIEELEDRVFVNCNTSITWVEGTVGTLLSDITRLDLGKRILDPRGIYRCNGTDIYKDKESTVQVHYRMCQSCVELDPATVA

| Kd [nM] | koff [s⁻¹] | kon [M⁻¹ s⁻¹] | Binder |
| --- | --- | --- | --- |
| 17.1 | 0.00768 | 456000 | B1 |
| 14.9 | 0.00417 | 278000 | B2 |
| 19.9 | 0.00443 | 253000 | B3 |
| 15.7 | 0.00631 | 403000 | B4 |
| 25.8 | 0.00641 | 306000 | B5 |

Each binder was assayed against human soluble CD3 (human) (UniProt P07766) (assay: SPR Biacore pH 7.4).

| Kd | koff | kon | t½ | Binder |
| --- | --- | --- | --- | --- |
| 22.3 nM and 24 nM | 0.00618 s⁻¹ and 0.0068 s⁻¹ | 277000 M⁻¹ s⁻¹ and 283000 M⁻¹ s⁻¹ | 1.76 min and 1.6 min | B4 |

Each binder was assayed against human soluble CD3 (human) (UniProt P07766) (assay: SPR Biacore pH 7.4, average).

| Kd [nM] | Binder |
| --- | --- |
| 23.1 | B4 |
